Values belong to the molecule of their own block, whether it stands above or below them. Bridge positions count the residues as written; N and C are the ends. Peptide text beside a SMILES is read from it.
Key:
cJun bZIP [1] = biological target: cJun bZIP (Homo sapiens, UniProt P05412, S292Y); test: CD spectra and thermal denaturation of peptide/cJun heterodimers; details: peptide (5 μM)/c-Jun (5 μM) heterodimer; Table 6
cJun bZIP [2] = biological target: T1, cJun bZIP (human, UniProt P05412 252-308, limits assumed); test: CD thermal denaturation, peptide 5 µM and c-Jun 5 µM
T1 construct: Purified from a His-SUMO fusion with the tag cleaved off; also called c-Jun bZIP domain; 60 amino acid c-Jun bZIP construct
T1 chain: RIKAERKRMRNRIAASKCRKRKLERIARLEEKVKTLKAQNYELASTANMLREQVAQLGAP

cJun bZIP [3] = biological target: T1, cJun bZIP; test: cell-based or functional assay

Tm (° C.) (cJun bZIP [1]): 64.3 ± 1.3 °C
Molecule: Ac-EDVLEEEIEQLEERNYALRKEIEDLQKQLEKLY-NH2 [Peptide 7]

Tm (° C.) (cJun bZIP [1]): 56.2 ± 1.3 °C
Molecule: Ac-EAEELVVEEDVLEEEIEQLEEKNKALKDEIEDLQKQY-NH2 [Peptide 20]

Tm (° C.) (cJun bZIP [1]): 53.8 ± 5.3 °C
Molecule: Ac-EAEELVVEEDVLEEEIEQLEERNYALRKEIEDLQ-NH2 [Peptide 28]

Tm (° C.) (cJun bZIP [1]): 62.1 ± 1.4 °C
Molecule: Ac-LVVEEDVLEEEIEQLEERNYALRKEIEDLQKQLEDL-NH2 [Peptide 9]

Tm (° C.) (cJun bZIP [1]): 55.5 ± 1.7 °C
Molecule: Ac-EAEELVVEEDVLEEEIKQLEDRNYALRKEIEDLQKQ-NH2 [Peptide 18]

Tm (° C.) (cJun bZIP [1]): 56.5 ± 1.6 °C
Molecule: Ac-KEAEDLVVEEDVLEEEIEQLEERNYALRKEIKDLQDQ-NH2 [Peptide 12]

Tm (° C.) (cJun bZIP [1]): 57.5 ± 1.1 °C
Molecule: Ac-EAKELVDEEDVLEEEIEQLEERNYALRKEIEDLQKQ-NH2 [Peptide 14]

Tm (° C.) (cJun bZIP [1]): 54.9 ± 1.2 °C
Molecule: Ac-EAEELVVEEKVLEDEIEQLEERNYALRKEIEDLQKQ-NH2 [Peptide 16]

Tm (° C.) (cJun bZIP [1]): 55.6 ± 1.2 °C
Molecule: Ac-EAEELVVEEDVLEEEIEQLEERNYALRKEIKDLQDQ-NH2 [Peptide 22]

Tm (° C.) (cJun bZIP [1]): 60.9 ± 3.6 °C
Molecule: CC[C@H](C)[C@H](NC(=O)[C@H](CCC(=O)O)NC(=O)[C@H](CCCCN)NC(=O)[C@H](CCCNC(=N)N)NC(=O)[C@H](CC(C)C)NC(=O)[C@H](C)NC(=O)[C@H](Cc1ccc(O)cc1)NC(=O)[C@H](CC(N)=O)NC(=O)[C@H](CCCNC(=N)N)NC(=O)[C@@H]1CC(=O)NCCCC[C@H](NC(=O)[C@@H](NC(=O)[C@H](CCC(=O)O)NC(=O)[C@H](CCC(=O)O)NC(=O)[C@H](CCC(=O)O)NC(=O)[C@H](CC(C)C)NC(=O)[C@@H](NC(=O)[C@H](CC(=O)O)NC(=O)[C@H](CCC(=O)O)NC(=O)[C@H](CCC(=O)O)NC(=O)[C@@H](NC(=O)[C@@H](NC(=O)[C@H](CC(C)C)NC(=O)[C@H](CCC(=O)O)NC(=O)[C@H](CCC(=O)O)NC(=O)[C@H](C)NC(=O)[C@H](CCC(=O)O)NC(C)=O)C(C)C)C(C)C)C(C)C)[C@@H](C)CC)C(=O)N[C@@H](CCC(N)=O)C(=O)N[C@@H](CC(C)C)C(=O)N[C@@H](CCC(=O)O)C(=O)N1)C(=O)N[C@@H](CCC(=O)O)C(=O)N[C@@H](CC(=O)O)C(=O)N[C@@H](CC(C)C)C(=O)N[C@@H](CCC(N)=O)C(=O)N[C@@H](CCCCN)C(=O)N[C@@H](CCC(N)=O)C(N)=O [Peptide 19] (Ac-EAEELVVEEDVLEEEIKQLEDRNYALRKEIEDLQKQ-NH2; lactam 17-21 (inferred))

Tm (° C.) (cJun bZIP [1]): 58.9 ± 1.0 °C
Molecule: CC[C@H](C)[C@H](NC(=O)[C@H](CCC(=O)O)NC(=O)[C@@H]1CC(=O)NCCCC[C@H](NC(=O)[C@H](CC(N)=O)NC(=O)[C@H](CCCCN)NC(=O)[C@H](CCC(=O)O)NC(=O)[C@H](CCC(=O)O)NC(=O)[C@H](CC(C)C)NC(=O)[C@H](CCC(N)=O)NC(=O)[C@H](CCC(=O)O)NC(=O)[C@@H](NC(=O)[C@H](CCC(=O)O)NC(=O)[C@H](CCC(=O)O)NC(=O)[C@H](CCC(=O)O)NC(=O)[C@H](CC(C)C)NC(=O)[C@@H](NC(=O)[C@H](CC(=O)O)NC(=O)[C@H](CCC(=O)O)NC(=O)[C@H](CCC(=O)O)NC(=O)[C@@H](NC(=O)[C@@H](NC(=O)[C@H](CC(C)C)NC(=O)[C@H](CCC(=O)O)NC(=O)[C@H](CCC(=O)O)NC(=O)[C@H](C)NC(=O)[C@H](CCC(=O)O)NC(C)=O)C(C)C)C(C)C)C(C)C)[C@@H](C)CC)C(=O)N[C@@H](C)C(=O)N[C@@H](CC(C)C)C(=O)N[C@@H](CCCCN)C(=O)N1)C(=O)N[C@@H](CCC(=O)O)C(=O)N[C@@H](CC(=O)O)C(=O)N[C@@H](CC(C)C)C(=O)N[C@@H](CCC(N)=O)C(=O)N[C@@H](CCCCN)C(=O)N[C@@H](CCC(N)=O)C(=O)N[C@@H](Cc1ccc(O)cc1)C(N)=O [Peptide 21] (Ac-EAEELVVEEDVLEEEIEQLEEKNKALKDEIEDLQKQY-NH2; lactam 24-28)

IC50 CD (cJun bZIP [3]): 115 µM
B1: HingeW variant peptide 12 (peptide)
peptide: Ac-KEAEDLVVEEDVLEEEIEQLEERNYALRKEIKDLQDQ-NH2
notes: Synthetic, NΔ19 CΔ7; also called linear form of 12/13
Tm (° C.) of peptide-c-Jun heterodimer (cJun bZIP [2]): 56.5 ° C.

IC50 CD (cJun bZIP [3]): 121 µM
B2: HingeW variant peptide 20 (peptide)
peptide: Ac-EAEELVVEEDVLEEEIEQLEEKNKALKDEIEDLQKQY-NH2
notes: Synthetic, NΔ20 CΔ7; also called linear form of 20/21
Tm (° C.) of peptide-c-Jun heterodimer (cJun bZIP [2]): 56.2 ° C.

IC50 CD (cJun bZIP [3]): 101 µM
B3: HingeW peptide variant 22 (peptide)
peptide: Ac-EAEELVVEEDVLEEEIEQLEERNYALRKEIKDLQDQ-NH2
notes: Synthetic, NΔ20 CΔ7; also called linear form of 22/23
Tm (° C.) of peptide-c-Jun heterodimer (cJun bZIP [2]): 55.6 ° C.

IC50 CD (cJun bZIP [3]): 94.4 µM
B4: HingeW variant peptide 19 (peptide)
peptide: Ac-EAEELVVEEDVLEEEIKQLEDRNYALRKEIEDLQKQ-NH2
modifications: lactam 17-21
SMILES: CC[C@H](C)[C@H](NC(=O)[C@H](CCC(=O)O)NC(=O)[C@H](CCCCN)NC(=O)[C@H](CCCNC(=N)N)NC(=O)[C@H](CC(C)C)NC(=O)[C@H](C)NC(=O)[C@H](Cc1ccc(O)cc1)NC(=O)[C@H](CC(N)=O)NC(=O)[C@H](CCCNC(=N)N)NC(=O)[C@@H]1CC(=O)NCCCC[C@H](NC(=O)[C@@H](NC(=O)[C@H](CCC(=O)O)NC(=O)[C@H](CCC(=O)O)NC(=O)[C@H](CCC(=O)O)NC(=O)[C@H](CC(C)C)NC(=O)[C@@H](NC(=O)[C@H](CC(=O)O)NC(=O)[C@H](CCC(=O)O)NC(=O)[C@H](CCC(=O)O)NC(=O)[C@@H](NC(=O)[C@@H](NC(=O)[C@H](CC(C)C)NC(=O)[C@H](CCC(=O)O)NC(=O)[C@H](CCC(=O)O)NC(=O)[C@H](C)NC(=O)[C@H](CCC(=O)O)NC(C)=O)C(C)C)C(C)C)C(C)C)[C@@H](C)CC)C(=O)N[C@@H](CCC(N)=O)C(=O)N[C@@H](CC(C)C)C(=O)N[C@@H](CCC(=O)O)C(=O)N1)C(=O)N[C@@H](CCC(=O)O)C(=O)N[C@@H](CC(=O)O)C(=O)N[C@@H](CC(C)C)C(=O)N[C@@H](CCC(N)=O)C(=O)N[C@@H](CCCCN)C(=O)N[C@@H](CCC(N)=O)C(N)=O
notes: Synthetic, NΔ20 CΔ7; also called cyclised form of 18/19
Tm (° C.) of peptide-c-Jun heterodimer (cJun bZIP [2]): 60.9 ° C.

IC50 CD (cJun bZIP [3]): 98.9 µM
B5: HingeW variant peptide 18 (peptide)
peptide: Ac-EAEELVVEEDVLEEEIKQLEDRNYALRKEIEDLQKQ-NH2
notes: Synthetic, NΔ20 CΔ7; also called linear form of 18/19
Tm (° C.) of peptide-c-Jun heterodimer (cJun bZIP [2]): 55.5 ° C.

IC50 CD (cJun bZIP [3]): 114 µM
B6: HingeW variant peptide 16 (peptide)
peptide: Ac-EAEELVVEEKVLEDEIEQLEERNYALRKEIEDLQKQ-NH2
notes: Synthetic, NΔ20 CΔ7; also called linear form of 16/17
Tm (° C.) of peptide-c-Jun heterodimer (cJun bZIP [2]): 54.9 ° C.

IC50 CD (cJun bZIP [3]): 100 µM
B7: HingeW variant peptide 14 (peptide)
peptide: Ac-EAKELVDEEDVLEEEIEQLEERNYALRKEIEDLQKQ-NH2
notes: Synthetic, NΔ20 CΔ7; also called linear form of 14/15
Tm (° C.) of peptide-c-Jun heterodimer (cJun bZIP [2]): 57.5 ° C.

IC50 CD (cJun bZIP [3]): 83.9 µM
Molecule: Ac-LVVEEDVLEEEIEQLEEKNKALKDEIEDLQKQLEKLY-NH2 (also: table prints a different, shorter sequence for 7/8, also called linear form of 7/8) [HingeW variant peptide 7]
Tm (° C.) of peptide-c-Jun heterodimer (cJun bZIP [2]): 64.3 ° C.

IC50 CD (cJun bZIP [3]): 1560 µM
Molecule: Ac-EAEELVVEEDVLEEEIEQLEEKNKALKDEIEDLY-NH2 [HingeW variant peptide 26]

IC50 CD (cJun bZIP [3]): 94.6 µM
B8: HingeW variant peptide 9 (peptide)
peptide: Ac-LVVEEDVLEEEIEQLEERNYALRKEIEDLQKQLEDL-NH2
notes: Synthetic, NΔ24 CΔ3; also called linear form of 9/10
Tm (° C.) of peptide-c-Jun heterodimer (cJun bZIP [2]): 62.1 ° C.

IC50 CD (cJun bZIP [3]): 94.1 µM
B9: HingeW variant peptide 21 (peptide)
peptide: Ac-EAEELVVEEDVLEEEIEQLEEKNKALKDEIEDLQKQY-NH2
modifications: lactam 24-28 (inferred)
notes: Synthetic, NΔ20 CΔ7; also called cyclised form of 20/21
Tm (° C.) of peptide-c-Jun heterodimer (cJun bZIP [2]): 58.9 ° C.
